Our source for the protein stability index values is the supplement of paper PMC10567573.

First the molecules themselves.
B1: ZNF263 (parent)
chain: KPYKCTLCGENFSHRSNLIRHQRI
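Note: lentivirally expressed fusions sorted by FACS into six bins by GFP to DsRed ratio, PSI derived from sequencing read proportions per bin multiplied by bin number.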

The variants in this data set derive from B1. Briefly: protein stability index of a GFP-peptide fusion (GPS, HEK-293T) (PSI 1-6); higher = more stable. To be noted: c terminus: a fixed tail appended.
For KPKKCTLCGENFSHRSNLIRHQRI [Y3K], the protein stability index came out at 3.17.

Take KPCKCTLCGENFSHRSNLIRHQRI [Y3C]: the protein stability index was determined as 2.47.

With KPGKCTLCGENFSHRSNLIRHQRI [Y3G], the protein stability index worked out at 1.84.

KPAKCTLCGENFSHRSNLIRHQRI [Y3A]: the protein stability index was found to be 1.9.

As for KPRKCTLCGENFSHRSNLIRHQRI [Y3R], the protein stability index turned out to be 3.54.

For the variant KPYKCTLCGENFSHRSNLIRHIRI [Q22I], the protein stability index stood at 2.72.

Take KPYKCTLCGENFSHRSNLIRHVRI [Q22V]: the protein stability index was 2.29.

For the variant KPYKCTLCGENFSHRSNLIRHERI [Q22E], the protein stability index came out at 1.66.

Regarding KPYKCTLCGENFSHRSNLIRHLRI [Q22L], the protein stability index is 2.35.

With KPYKCTLCGENFSHRSNLIRHFRI [Q22F], the protein stability index was determined as 2.35.

Consider KPYKCTLCGENFSHRSNLIRHGRI [Q22G], for which the protein stability index was found to be 1.86.

Consider KPYKCTLCGENFSHRSNLIRHCRI [Q22C], for which the protein stability index was found to be 2.44.

Turning to KPYKCTLCGENFSHRSNLIRHSRI [Q22S], the protein stability index was 2.54.

For the variant KPYKCTLCGENFSHRSNLIRHNRI [Q22N], the protein stability index turned out to be 2.61.

Regarding KPYKCTLCGENFSHRSNLIRHTRI [Q22T], the protein stability index was 2.54.

Take KPYKCTLCGENFSHRSNLIRHKRI [Q22K]: the protein stability index was found to be 2.14.

As for KPYKCTLCGENFSHRSNLIRLQRI [H21L], the protein stability index worked out at 1.89.

In the case of KPYKCTLCGENFSHRSNLIRTQRI [H21T], the protein stability index was 2.22.

Regarding KPYKCTLCGENFSHRSNLIRFQRI [H21F], the protein stability index was determined as 2.34.

Consider KPYKCTLCGENFSHRSNLIRCQRI [H21C], for which the protein stability index came out at 2.6.

Take KPYKCTLCGENFSHRSNLIRMQRI [H21M]: the protein stability index stood at 2.72.

Regarding KPYKCTLCGENFSHRSNLIRIQRI [H21I], the protein stability index came out at 1.58.

KPYKCTLCGENFSHRSNLIRSQRI [H21S]: the protein stability index is 1.89.

For the variant KPYKCTLCGENFSHRSNLIRRQRI [H21R], the protein stability index came out at 1.78.

For the variant KPYKCTLCGENFSHRSNLIRYQRI [H21Y], the protein stability index amounted to 2.46.

In the case of KPYKCTLCGENFSHRSNLIRDQRI [H21D], the protein stability index turned out to be 2.29.

As for KPYKCTLCGENFSHRSNLIRPQRI [H21P], the protein stability index amounted to 1.69.

With KPYKCTLCGENFSHRSNLIMHQRI [R20M], the protein stability index worked out at 2.22.

On to KPYKCTLCGENFSHRSNLIHHQRI [R20H], for which the protein stability index stood at 1.76.

For the variant KPYKCTLCGENFSHRSNLIDHQRI [R20D], the protein stability index was 2.84.

Consider KPYKCTLCGENFSHRSNLICHQRI [R20C], for which the protein stability index stood at 2.45.

For KPYKCTLCGENFSHRSNLIQHQRI [R20Q], the protein stability index is 2.6.

Regarding KPYKCTLCGENFSHRSNLILHQRI [R20L], the protein stability index is 2.15.

In the case of KPYKCTLCGENFSHRSNLIIHQRI [R20I], the protein stability index was found to be 1.81.

With KPYKCTLCGENFSHRSNLIWHQRI [R20W], the protein stability index is 1.76.

As to KPYKCTLCGENFSHRSNLIEHQRI [R20E], the protein stability index came out at 3.12.

On to KPYKCTLCGENFSHRSNLIRHQLI [R23L], for which the protein stability index came out at 2.82.

For KPYKCTLCGENFSHRSNLIRHQWI [R23W], the protein stability index turned out to be 1.65.

For the variant KPYKCTLCGENFSHRSNLIRHQGI [R23G], the protein stability index was determined as 2.49.

For KPYKCTLCGENFSHRSNLIRHQSI [R23S], the protein stability index stood at 2.28.

KPYKCTLCGENFSHRSNLIRHQHI [R23H]: the protein stability index stood at 3.28.

On to KPYKCTLCGENFSHRSNLIRHQDI [R23D], for which the protein stability index was 2.73.

As to KPYKCTLCGENFSHRSNLIRHQII [R23I], the protein stability index was found to be 2.48.

For the variant KPYKCTLCGENFSRRSNLIRHQRI [H14R], the protein stability index came out at 2.41.

Regarding KPYKCTLCGENFSARSNLIRHQRI [H14A], the protein stability index stood at 2.56.

Take KPYKCTLCGENFSQRSNLIRHQRI [H14Q]: the protein stability index turned out to be 1.9.

Regarding KPYKCTLCGENFSNRSNLIRHQRI [H14N], the protein stability index was determined as 2.56.

Regarding KPYKCTLCGENFSDRSNLIRHQRI [H14D], the protein stability index worked out at 2.68.

In the case of KPYKCTLCGENFSFRSNLIRHQRI [H14F], the protein stability index amounted to 2.23.

Turning to KPYKCTLCGENFSCRSNLIRHQRI [H14C], the protein stability index was determined as 2.68.

Regarding KPYKCTLCGENFSMRSNLIRHQRI [H14M], the protein stability index came to 2.55.

On to KPYKCTLGGENFSHRSNLIRHQRI [C8G], for which the protein stability index came to 2.45.

On to KPYKCTLSGENFSHRSNLIRHQRI [C8S], for which the protein stability index was 4.1.

Regarding KPYKCTLLGENFSHRSNLIRHQRI [C8L], the protein stability index came out at 2.44.

As to KPYKCTLMGENFSHRSNLIRHQRI [C8M], the protein stability index came to 1.83.

In the case of KPYKCTLDGENFSHRSNLIRHQRI [C8D], the protein stability index was 2.62.

KPYKCTLQGENFSHRSNLIRHQRI [C8Q]: the protein stability index was 2.74.

For KPYKCTLYGENFSHRSNLIRHQRI [C8Y], the protein stability index was 2.41.

As to KPYKCTLRGENFSHRSNLIRHQRI [C8R], the protein stability index came out at 1.73.

Consider KPYKCTLEGENFSHRSNLIRHQRI [C8E], for which the protein stability index is 2.48.

KPYKCTLFGENFSHRSNLIRHQRI [C8F]: the protein stability index is 2.11.

In the case of KPYKCTLTGENFSHRSNLIRHQRI [C8T], the protein stability index came out at 2.69.

As for KPYKCTLIGENFSHRSNLIRHQRI [C8I], the protein stability index turned out to be 2.58.

In the case of KPYKCTLKGENFSHRSNLIRHQRI [C8K], the protein stability index amounted to 3.61.

Take KPYKCTLCGENFSHRSNLIRHQRY [I24Y]: the protein stability index is 2.51.

Consider KPYKCTLCGENFSHRSNLIRHQRV [I24V], for which the protein stability index came out at 2.63.

In the case of KPYKCTLCGENFSHRSNLIRHQRQ [I24Q], the protein stability index turned out to be 4.56.

Take KPYKCTLCGENFSHRSNLIRHQRL [I24L]: the protein stability index was determined as 2.3.

As for KPYKCTLCGENFSHRSNLIRHQRW [I24W], the protein stability index is 2.4.

Regarding KPYKCTLCGENFSHRSNLIRHQRE [I24E], the protein stability index is 3.68.

Regarding KPYKCTLCGENFSHRSNLIRHQRS [I24S], the protein stability index amounted to 2.53.

KPYKCTLCGENFSHRSNLIRHQRK [I24K]: the protein stability index amounted to 2.89.

With KPYKCTLCGENFSHRSNLIRHQRT [I24T], the protein stability index was 2.64.

As to KPYKCTLCGENFSHQSNLIRHQRI [R15Q], the protein stability index is 2.43.

Take KPYKCTLCGENFSHISNLIRHQRI [R15I]: the protein stability index came to 2.73.

Take KPYKCTLCGENFSHGSNLIRHQRI [R15G]: the protein stability index turned out to be 2.08.

Turning to KPYKCTLCGENFSHCSNLIRHQRI [R15C], the protein stability index was 2.34.

Take KPYKCTLCGENFSHTSNLIRHQRI [R15T]: the protein stability index is 1.59.

As to KPYKCTLCGENFSHDSNLIRHQRI [R15D], the protein stability index stood at 1.55.

Regarding KPYKCTLCGENFSHKSNLIRHQRI [R15K], the protein stability index worked out at 2.28.

As for KPYACTLCGENFSHRSNLIRHQRI [K4A], the protein stability index worked out at 2.32.

Turning to KPYYCTLCGENFSHRSNLIRHQRI [K4Y], the protein stability index was 2.16.

In the case of KPYDCTLCGENFSHRSNLIRHQRI [K4D], the protein stability index stood at 1.75.

In the case of KPYGCTLCGENFSHRSNLIRHQRI [K4G], the protein stability index amounted to 2.35.

Regarding KPYMCTLCGENFSHRSNLIRHQRI [K4M], the protein stability index was found to be 2.23.

Take KPYKCTACGENFSHRSNLIRHQRI [L7A]: the protein stability index came out at 3.07.

Turning to KPYKCTRCGENFSHRSNLIRHQRI [L7R], the protein stability index came out at 2.28.

With KPYKCTFCGENFSHRSNLIRHQRI [L7F], the protein stability index was 2.51.

Take KPYKCTTCGENFSHRSNLIRHQRI [L7T]: the protein stability index turned out to be 2.51.

Turning to KPYKCTGCGENFSHRSNLIRHQRI [L7G], the protein stability index was found to be 2.18.

Take KPYKCTVCGENFSHRSNLIRHQRI [L7V]: the protein stability index stood at 3.37.

As to KPYKCTKCGENFSHRSNLIRHQRI [L7K], the protein stability index turned out to be 3.22.

Consider KTYKCTLCGENFSHRSNLIRHQRI [P2T], for which the protein stability index worked out at 2.53.

In the case of KVYKCTLCGENFSHRSNLIRHQRI [P2V], the protein stability index is 2.98.
